Non-standard residues stand in square brackets, D forms with d. No end group written: not given here.
T1: Interleukin-1 receptor accessory protein (IL-1RacP), on A549 carcinoma cells (human, UniProt Q9NPH3 21-570)
T1 sequence (looked up): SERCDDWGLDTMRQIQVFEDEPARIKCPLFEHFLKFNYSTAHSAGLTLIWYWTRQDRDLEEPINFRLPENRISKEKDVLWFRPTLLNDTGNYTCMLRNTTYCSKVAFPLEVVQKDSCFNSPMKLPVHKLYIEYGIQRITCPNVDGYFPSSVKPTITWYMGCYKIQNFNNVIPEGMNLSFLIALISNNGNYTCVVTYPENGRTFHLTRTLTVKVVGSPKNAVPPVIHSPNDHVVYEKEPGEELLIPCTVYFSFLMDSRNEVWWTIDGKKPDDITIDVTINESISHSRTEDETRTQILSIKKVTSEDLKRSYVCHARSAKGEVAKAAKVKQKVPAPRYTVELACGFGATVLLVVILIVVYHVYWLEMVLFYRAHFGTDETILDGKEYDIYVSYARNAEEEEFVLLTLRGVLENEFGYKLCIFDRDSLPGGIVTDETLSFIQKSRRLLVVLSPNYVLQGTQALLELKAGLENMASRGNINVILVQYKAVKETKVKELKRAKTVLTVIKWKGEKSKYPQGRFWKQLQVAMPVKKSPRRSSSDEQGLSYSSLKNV


target: Insulin-like growth factor-1 receptor (IGF-1R) (human, UniProt P08069 31-1367); assay: cell-based or functional assay
Sequence (P08069 31-1367): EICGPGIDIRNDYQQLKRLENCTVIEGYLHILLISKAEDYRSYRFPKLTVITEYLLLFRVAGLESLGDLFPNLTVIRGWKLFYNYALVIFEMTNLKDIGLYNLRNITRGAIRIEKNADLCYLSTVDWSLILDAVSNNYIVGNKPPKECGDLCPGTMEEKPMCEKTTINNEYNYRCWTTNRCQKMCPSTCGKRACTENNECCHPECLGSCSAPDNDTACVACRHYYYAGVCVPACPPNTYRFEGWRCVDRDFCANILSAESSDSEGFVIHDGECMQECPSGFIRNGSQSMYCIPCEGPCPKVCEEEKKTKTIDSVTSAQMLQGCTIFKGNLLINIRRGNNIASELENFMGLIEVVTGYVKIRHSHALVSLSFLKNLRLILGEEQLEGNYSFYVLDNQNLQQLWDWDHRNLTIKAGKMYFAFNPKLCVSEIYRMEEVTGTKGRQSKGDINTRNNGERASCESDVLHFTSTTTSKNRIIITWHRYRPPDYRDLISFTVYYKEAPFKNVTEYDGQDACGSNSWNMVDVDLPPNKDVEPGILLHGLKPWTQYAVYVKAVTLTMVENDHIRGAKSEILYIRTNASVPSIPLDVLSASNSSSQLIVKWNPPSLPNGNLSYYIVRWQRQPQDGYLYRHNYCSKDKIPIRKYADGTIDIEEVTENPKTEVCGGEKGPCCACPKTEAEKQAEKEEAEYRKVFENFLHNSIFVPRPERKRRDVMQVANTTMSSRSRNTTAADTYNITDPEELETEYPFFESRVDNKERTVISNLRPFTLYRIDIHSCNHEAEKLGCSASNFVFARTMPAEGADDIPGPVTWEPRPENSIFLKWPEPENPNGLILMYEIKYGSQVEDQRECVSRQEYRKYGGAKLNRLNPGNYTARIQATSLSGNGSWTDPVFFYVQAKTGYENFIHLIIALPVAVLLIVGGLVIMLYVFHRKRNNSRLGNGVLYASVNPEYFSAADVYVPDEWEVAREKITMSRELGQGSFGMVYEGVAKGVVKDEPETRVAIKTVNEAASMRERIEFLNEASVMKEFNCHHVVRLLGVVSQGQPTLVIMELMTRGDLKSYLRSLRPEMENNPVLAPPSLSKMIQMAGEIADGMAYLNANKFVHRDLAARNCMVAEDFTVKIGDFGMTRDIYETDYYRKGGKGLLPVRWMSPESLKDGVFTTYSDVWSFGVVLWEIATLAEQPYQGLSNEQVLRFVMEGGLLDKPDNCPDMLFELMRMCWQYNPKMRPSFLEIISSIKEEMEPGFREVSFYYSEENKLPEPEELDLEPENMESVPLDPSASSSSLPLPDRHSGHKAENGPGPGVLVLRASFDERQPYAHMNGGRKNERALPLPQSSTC

Binder | IGF-1 induced proliferation in A549 carcinoma cells, 3H-thymidine incorporation [nM]
[dS][dL][dF][dV][dP][dR][dP][dE][dR][dK] [APG-201] | 1000
[dL][dR][dK][dY][dA][dD]G[dT][dL] [APG-204] | 10
[dE][dS][dD][dV][dL][dH][dF][dT][dS][dT] [APG-202] | 10

target: T1, Interleukin-1 receptor accessory …; assay: cell-based or functional assay

Binder | IL-1 induced proliferation in A549 carcinoma cells, 3H-thymidine incorporation [nM]
MKLPVHKLY [API-103] | 1000
APRYTVELA [API-101] | 1000
VGSPKNAVPPV [API-106] | 10000
